The source of these data is patent publication US20260209386A1 (MYTHIC THERAPEUTICS, published 2026).

Where a chain is given by its changes, count along the chain named. Where two headings read alike, the source gives them in different places.

The target of test [1] is T1, Human PTK7 Protein, His Tag, Acro Biosystems (human, UniProt Q13308 31-704).
T1 construct: Bought recombinant protein; also called CCK4; not shown: His tag
T1 sequence: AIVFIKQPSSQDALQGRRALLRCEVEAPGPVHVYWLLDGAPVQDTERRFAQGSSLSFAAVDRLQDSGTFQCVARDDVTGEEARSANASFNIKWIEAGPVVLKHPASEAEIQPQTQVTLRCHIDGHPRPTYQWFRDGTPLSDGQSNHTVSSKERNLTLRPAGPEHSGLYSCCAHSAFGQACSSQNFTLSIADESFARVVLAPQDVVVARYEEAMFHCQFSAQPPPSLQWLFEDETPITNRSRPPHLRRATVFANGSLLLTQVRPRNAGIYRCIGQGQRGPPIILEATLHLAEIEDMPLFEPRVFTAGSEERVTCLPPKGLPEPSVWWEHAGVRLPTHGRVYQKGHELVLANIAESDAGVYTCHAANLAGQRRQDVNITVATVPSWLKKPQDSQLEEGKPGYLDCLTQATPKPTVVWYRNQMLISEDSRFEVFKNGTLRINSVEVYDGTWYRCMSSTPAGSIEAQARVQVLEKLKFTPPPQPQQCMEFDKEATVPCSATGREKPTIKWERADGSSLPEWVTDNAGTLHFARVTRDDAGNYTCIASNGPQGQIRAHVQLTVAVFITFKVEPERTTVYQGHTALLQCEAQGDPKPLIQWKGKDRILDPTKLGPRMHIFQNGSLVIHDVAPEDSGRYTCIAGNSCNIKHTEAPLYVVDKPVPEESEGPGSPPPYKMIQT
Nature of the test: BLI, anti-human Fc capture, 50 nM PTK7; 2 = substantially similar binding relative to parent. For orientation: Biolayer interferometry detects binding as a change in optical thickness at a sensor tip.

Test [2] concerns the target T2, Human PTK7 Protein, His Tag, Acro Biosystems (human, UniProt Q13308 31-704).
T2 construct: Bought recombinant protein; also called CCK4; not shown: His tag
T2 sequence: T1 sequence
Described as above. This is another data set of the same source.

B1: MYT11139 (antibody, V domains shown)
VH: EVQLVESGGGLVQPGGSLRLSCTASGFSLSTYAMSWVRQAPGKGLEWVGMIYINDNTYYASWAKGRFTISRDTSKNTVYLQMNSLRAEDTAVYFCARDIGISYYIGHSLWGQGTLVTVSS
VL: EIVMTQSPSTLSASVGDRVIITCQASQSIGTRLSWYQQKPGKAPKLLIYGASKLATGVPSRFSGSGSGAEFTLTISSLQPDDFATYYCLGEYSYTTTDGIAFGQGTKLTVL
notes: MYT9412 HC variant
For the molecule B1, in test [1], the binding result is “binds”.

B2: MYT11147 (antibody, V domains shown)
VH: B1 VH with H107V
VL: B1 VL with S26H
notes: MYT9412 LC variant
Consider B2, for which the binding result in test [1] was “binds”.

B3: MYT11145 (antibody, V domains shown)
VH: B1 VH with H107V
VL: B1 VL with Q24H
notes: MYT9412 LC variant
Turning to B3, in test [1], the binding result was “binds”.

B4: MYT11160 (antibody, V domains shown)
VH: B1 VH with H107V
VL: B1 VL with L54H
notes: MYT9412 LC variant
For the molecule B4, in test [1], the binding result is “binds”.

B5: MYT11158 (antibody, V domains shown)
VH: B1 VH with H107V
VL: B1 VL with S52H
notes: MYT9412 LC variant
For B5, the binding result in test [1] is “binds”.

B6: MYT11164 (antibody, V domains shown)
VH: B1 VH with H107V
VL: B1 VL with G90H
notes: MYT9412 LC variant
Consider B6, for which the binding result in test [1] is given as “binds”.

B7: MYT11161 (antibody, V domains shown)
VH: B1 VH with H107V
VL: B1 VL with A55H
notes: MYT9412 LC variant
B7: the binding result in test [1] is “binds”.

B8: MYT11155 (antibody, V domains shown)
VH: B1 VH with H107V
VL: B1 VL with S34H
notes: MYT9412 LC variant
B8: the binding result in test [1] is listed as “binds”.

B9: MYT11167 (antibody, V domains shown)
VH: B1 VH with H107V
VL: B1 VL with S93H
notes: MYT9412 LC variant
Consider B9, for which the binding result in test [1] was “binds”.

B10: MYT11148 (antibody, V domains shown)
VH: B1 VH with H107V
VL: B1 VL with Q27H
notes: MYT9412 LC variant
For B10, in test [1], the binding result is listed as “binds”.

B11: MYT11159 (antibody, V domains shown)
VH: B1 VH with H107V
VL: B1 VL with K53H
notes: MYT9412 LC variant
Consider B11, for which, in test [1], the binding result is “binds”.

B12: MYT11168 (antibody, V domains shown)
VH: B1 VH with H107V
VL: B1 VL with Y94H
notes: MYT9412 LC variant
On to B12, for which the binding result in test [1] is “binds”.

B13: MYT11175 (antibody, V domains shown)
VH: B1 VH with H107V
VL: B1 VL with A101H
notes: MYT9412 LC variant
For B13, the binding result in test [1] is “binds”.

B14: MYT11157 (antibody, V domains shown)
VH: B1 VH with H107V
VL: B1 VL with A51H
notes: MYT9412 LC variant
B14: in test [1], the binding result is “binds”.

B15: MYT11179 (antibody, V domains shown)
VH: B1 VH with H107V
VL: B1 VL with E91A
notes: MYT9412 LC alanine variant
Regarding B15, in test [1], the binding result was “binds”.

B16: MYT11173 (antibody, V domains shown)
VH: B1 VH with H107V
VL: B1 VL with G99H
notes: MYT9412 LC variant
As to B16, in test [1], the binding result is “binds”.

B17: MYT11171 (antibody, V domains shown)
VH: B1 VH with H107V
VL: B1 VL with T97H
notes: MYT9412 LC variant
For B17, the binding result in test [1] is listed as “binds”.

B18: MYT11169 (antibody, V domains shown)
VH: B1 VH with H107V
VL: B1 VL with T95H
notes: MYT9412 LC variant
Consider B18, for which, in test [1], the binding result is reported as “binds”.

B19: MYT11162 (antibody, V domains shown)
VH: B1 VH with H107V
VL: B1 VL with T56H
notes: MYT9412 LC variant
B19: the binding result in test [1] is recorded as “binds”.

B20: MYT11156 (antibody, V domains shown)
VH: B1 VH with H107V
VL: B1 VL with G50H
notes: MYT9412 LC variant
Turning to B20, the binding result in test [1] is reported as “binds”.

B21: MYT11141 (antibody, V domains shown)
VH: B1 VH with H107V, L109H
VL: B1 VL
notes: MYT9412 HC variant
For the molecule B21, the binding result in test [1] is listed as “binds”.

B22: MYT11149 (antibody, V domains shown)
VH: B1 VH with H107V
VL: B1 VL with S28H
notes: MYT9412 LC variant
As to B22, in test [1], the binding result was “binds”.

B23: MYT11154 (antibody, V domains shown)
VH: B1 VH with H107V
VL: B1 VL with L33H
notes: MYT9412 LC variant
For the molecule B23, the binding result in test [1] is recorded as “binds”.

B24: MYT11140 (antibody, V domains shown)
VH: B1 VH with H107V, S108H
VL: B1 VL
notes: MYT9412 HC variant
Consider B24, for which, in test [1], the binding result is reported as “binds”.

B25: MYT11170 (antibody, V domains shown)
VH: B1 VH with H107V
VL: B1 VL with T96H
notes: MYT9412 LC variant
Regarding B25, the binding result in test [1] is “binds”.

B26: MYT11256 (antibody, V domains shown)
VH: EVQLVESGGGLVQPGGSLRLSCTASGIHLSRYSMGWVRQAPGKGLEWVGIISYGGSTYYASWAKGRFTISRDTSKNTVYLQMNSLRAEDTAVYFCARVGYPGYSGYGYAFDAFDPWGQGTLVTVSS
VL: EIVMTQSPSTLSASVGDRVIITCQSSKSVYNDNWLSWYQQKPGKAPKLLIYGASTLASGVPSRFSGSGSGAEFTLTISSLQPDDFATYYCAGGYSSSSDNGFGQGTKLTVL
notes: MYT9792 variant, His at VH 28 (H1 03)
Consider B26, for which the binding result in test [2] was “binds”.

B27: MYT11265 (antibody, V domains shown)
VH: B26 VH with H28D, I51H
VL: B26 VL
notes: MYT9792 variant, His at VH 51 (H2 02)
For B27, the binding result in test [2] is “binds”.

B28: MYT11274 (antibody, V domains shown)
VH: B26 VH with H28D, A60H
VL: B26 VL
notes: MYT9792 variant, His at VH 60 (H2 11)
Regarding B28, the binding result in test [2] is reported as “binds”.

B29: MYT11270 (antibody, V domains shown)
VH: B26 VH with H28D, S56H
VL: B26 VL
notes: MYT9792 variant, His at VH 56 (H2 07)
Take B29: the binding result in test [2] is reported as “binds”.

B30: MYT11268 (antibody, V domains shown)
VH: B26 VH with H28D, G54H
VL: B26 VL
notes: MYT9792 variant, His at VH 54 (H2 05)
In the case of B30, the binding result in test [2] was “binds”.

B31: MYT11269 (antibody, V domains shown)
VH: B26 VH with H28D, G55H
VL: B26 VL
notes: MYT9792 variant, His at VH 55 (H2 06)
Take B31: the binding result in test [2] is given as “binds”.

B32: MYT11254 (antibody, V domains shown)
VH: B26 VH with G26H, H28D
VL: B26 VL
notes: MYT9792 variant, His at VH 26 (H1 01)
Turning to B32, the binding result in test [2] is given as “binds”.

B33: MYT11255 (antibody, V domains shown)
VH: B26 VH with I27H, H28D
VL: B26 VL
notes: MYT9792 variant, His at VH 27 (H1 02)
For the molecule B33, the binding result in test [2] is “binds”.

B34: MYT11262 (antibody, V domains shown)
VH: B26 VH with H28D, M34H
VL: B26 VL
notes: MYT9792 variant, His at VH 34 (H1 09)
On to B34, for which the binding result in test [2] is recorded as “binds”.

B35: MYT11266 (antibody, V domains shown)
VH: B26 VH with H28D, S52H
VL: B26 VL
notes: MYT9792 variant, His at VH 52 (H2 03)
In the case of B35, in test [2], the binding result was “binds”.

B36: MYT11260 (antibody, V domains shown)
VH: B26 VH with H28D, Y32H
VL: B26 VL
notes: MYT9792 variant, His at VH 32 (H1 07)
On to B36, for which the binding result in test [2] is “binds”.

B37: MYT11273 (antibody, V domains shown)
VH: B26 VH with H28D, Y59H
VL: B26 VL
notes: MYT9792 variant, His at VH 59 (H2 10)
Consider B37, for which the binding result in test [2] is listed as “binds”.
